{"source": "patent WO2020033925A2", "about": "(dated 2020)", "molecular_target": "human BTN3A1 ectopically expressed on K32 cells (human, UniProt O00481 30-513)", "sequence (O00481 30-513 limits assumed, form in doubt)": "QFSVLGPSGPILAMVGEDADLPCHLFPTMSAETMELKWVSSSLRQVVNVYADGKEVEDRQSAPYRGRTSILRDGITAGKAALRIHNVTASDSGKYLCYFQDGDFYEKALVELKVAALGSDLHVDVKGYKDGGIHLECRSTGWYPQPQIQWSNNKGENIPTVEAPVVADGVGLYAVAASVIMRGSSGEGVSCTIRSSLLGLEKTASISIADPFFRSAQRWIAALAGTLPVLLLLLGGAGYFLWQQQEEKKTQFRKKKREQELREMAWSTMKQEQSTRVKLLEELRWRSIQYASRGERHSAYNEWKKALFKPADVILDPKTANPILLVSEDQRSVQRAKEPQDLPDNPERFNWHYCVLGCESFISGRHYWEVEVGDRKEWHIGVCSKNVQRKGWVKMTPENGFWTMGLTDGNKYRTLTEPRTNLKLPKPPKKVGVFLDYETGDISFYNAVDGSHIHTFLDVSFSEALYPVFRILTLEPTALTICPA", "test": "cell-based or functional assay"}
{"binder": "anti-CD277 monoclonal antibody mAb1 (antibody, V domains shown) VH: not shown VL: DIQMTQSPSSVSASVGDRVTITCRASQGISSWLAWYQQKPGKAPKLLIYAASSLQSGVPSRFSGSGSGTDFTLTISSLQPEDFATYYCQQATDFPPTFGGGTKVEIK", "values": [{"measurement": "proliferation of gated CD4+ T cells within total PBMCs co-cultured with anti-CD3/anti-CD28 coated BTN-K32 cells (Figure 3A)", "value": "≥ 1.5", "unit": "fold"}, {"measurement": "proliferation of gated CD8+ T cells within total PBMCs co-cultured with anti-CD3/anti-CD28 coated BTN-K32 cells (Figure 3C)", "value": "≥ 1.5", "unit": "fold"}, {"measurement": "proliferation of purified CD4+ T cells stimulated with BTN-K32 cells (Figure 4A)", "value": "≥ 1.5", "unit": "fold"}, {"measurement": "proliferation of purified CD8+ T cells stimulated with BTN-K32 cells (Figure 4C)", "value": "≥ 2", "unit": "fold"}, {"measurement": "release of IFN-g from purified CD4+ T cells stimulated with BTN-K32 cells (ELISA, Figure 5A)", "value": "> 2", "unit": "fold"}, {"measurement": "release of IFN-g from purified CD8+ T cells stimulated with BTN-K32 cells (ELISA, Figure 5C)", "value": "~1300", "unit": "fold"}]}
